The values that follow come from PMC7559355.

Experiment [1] concerns the target Radiolabeled FabA (3H-labeled FabA) (rabbit). Description: SEC; radio-SEC of dosing formulations, 3H-FabA with equimolar albumin; 100 mM sodium phosphate pH 7.4, 10% ethanol.
Experiment [2] has the same target. Description: SEC; radio-SEC; 3H-FabA (0.57 or 5.7 µM) incubated in cynomolgus monkey vitreous humor at endogenous albumin (0.53 µM), 37 °C.
The target is the same in experiment [3]. In words: SEC; radio-SEC; 3H-FabA (0.57 or 5.7 µM) incubated in cynomolgus monkey vitreous humor supplemented with 50, 100 and 250 µM CSA, 37 °C. In general terms: In gel filtration, larger molecules generally elute earlier.
In experiment [4] the target is FabA (rabbit Fab with the anti-HSA nanobody ALB8 fused to the C-terminus of the heavy chain) (rabbit). In words: SPR; Fab captured by its His6 tag on an immobilised anti-His antibody (CM3 chip, about 15 RU); albumin 22.2-1800 nM injected; HBS-P+ (10 mM HEPES, 150 mM NaCl, pH 7.4, 0.05% P20), 25 °C; Langmuir 1:1 model. Background: Surface plasmon resonance follows binding to a sensor surface in real time, without labels.

Experiment [5] addresses Radiolabeled FabA (3H-labeled FabA) (rabbit).
Experiment [6] deals with FabA (rabbit Fab with the anti-HSA nanobody ALB8 fused to the C-terminus of the heavy chain) (rabbit). In words: SPR; Fab captured by its His6 tag on an immobilised anti-His antibody (CM3 chip, about 15 RU); albumin 22.2-1800 nM injected; HBS-P+ (10 mM HEPES, 150 mM NaCl, pH 7.4, 0.05% P20), 25 °C; Langmuir 1:1 model. This is another data set of the same source.
Experiment [7] has as its target Radiolabeled FabA (3H-labeled FabA) (rabbit). The description is as above.

Read-outs that look alike come from different tables or passages of the source.

Take “Cynomolgus serum albumin (from UniProt A2V9Z4 25-608) (natural protein)”: the stoichiometry N – broadly, a count of units in the complex or per binding partner – in experiment [1] was 1. In experiment [2], the stoichiometry N is 1. The same substance gave a stoichiometry N in experiment [3] of 2. In experiment [4], the Kd (in general, the concentration at which binding is half-saturated) was 66 nM; the koff (in general, the first-order rate constant of dissociation) came to 0.0065 s⁻¹; the kon (as a rule, the second-order rate constant of association) was determined as 99000 M⁻¹ s⁻¹.

In turn, “Human serum albumin (from UniProt P02768 25-609) (natural protein)” showed a vitreous humor exposure (AUCinf) of 3H-FabA in rabbits after intravitreal injection of 0.05 mg co-formulated with 1 or 15 nmol HSA (104 and 230 h∙nmol/mL; FabB control with 1 nmol HSA 72.8) in experiment [5] of 230 nmol·h/mL. In experiment [5], this substance registered a vitreous humor half-life (t1/2) of 3H-FabA in rabbits after intravitreal injection of 0.05 mg co-formulated with 1 or 15 nmol HSA (58.0 and 149 h; FabB control with 1 nmol HSA 52.1 h) of 149 h. For the same substance, the Kd in experiment [4] came out at 55 nM; in experiment [6], 99 nM; in experiment [7], 97 nM.
